B1: mCER-Prx2(C51S), expressed in HEK293 cells (natural protein)
chain: MASGNARIGKPAPDFKATAVVDGAFKEVKLSDYKGKYVVLFFYPLDFTFVSPTEIIAFSNRAEDFRKLGCEVLGVSVDSQFTHLAWINTPRKEGGLGPLNIPLLADVTRRLSEDYGVLKTDEGIAYRGLFIIDGKGVLRQITVNDLPVGRSVDEALRLVQAFQYTDEHGEVCPAGWKPGSDTIKPNVDDSKEYFSKHN
B2: recombinant mCER-Prx2(C172S) (natural protein)
chain: MASGNARIGKPAPDFKATAVVDGAFKEVKLSDYKGKYVVLFFYPLDFTFVCPTEIIAFSNRAEDFRKLGCEVLGVSVDSQFTHLAWINTPRKEGGLGPLNIPLLADVTRRLSEDYGVLKTDEGIAYRGLFIIDGKGVLRQITVNDLPVGRSVDEALRLVQAFQYTDEHGEVSPAGWKPGSDTIKPNVDDSKEYFSKHN
B3: mCER-Prx2(T82E/A85E), expressed in HEK293 cells (natural protein)
chain: MASGNARIGKPAPDFKATAVVDGAFKEVKLSDYKGKYVVLFFYPLDFTFVCPTEIIAFSNRAEDFRKLGCEVLGVSVDSQFEHLEWINTPRKEGGLGPLNIPLLADVTRRLSEDYGVLKTDEGIAYRGLFIIDGKGVLRQITVNDLPVGRSVDEALRLVQAFQYTDEHGEVCPAGWKPGSDTIKPNVDDSKEYFSKHN
B4: recombinant mCER-Prx2 (natural protein)
chain: MASGNARIGKPAPDFKATAVVDGAFKEVKLSDYKGKYVVLFFYPLDFTFVCPTEIIAFSNRAEDFRKLGCEVLGVSVDSQFTHLAWINTPRKEGGLGPLNIPLLADVTRRLSEDYGVLKTDEGIAYRGLFIIDGKGVLRQITVNDLPVGRSVDEALRLVQAFQYTDEHGEVCPAGWKPGSDTIKPNVDDSKEYFSKHN
B5: recombinant mCER-Prx2(C51S) (natural protein)
chain: MASGNARIGKPAPDFKATAVVDGAFKEVKLSDYKGKYVVLFFYPLDFTFVSPTEIIAFSNRAEDFRKLGCEVLGVSVDSQFTHLAWINTPRKEGGLGPLNIPLLADVTRRLSEDYGVLKTDEGIAYRGLFIIDGKGVLRQITVNDLPVGRSVDEALRLVQAFQYTDEHGEVCPAGWKPGSDTIKPNVDDSKEYFSKHN

Tests used:
FRET or BRET = molecular target: the molecule itself; experiment: FRET or BRET
SEC = molecular target: the molecule itself; experiment: SEC

Protein	stoichiometry N (FRET or BRET)	stoichiometry N (SEC)
B1	10	
B2		2
B3	2	
B4		10
B5		10

From publication PMC7368258 (Proceedings of the National Academy of Sciences of the …, 2020)
